Source: US10570381B2, “STEP-derived peptide for brain injury treatment” (STC.UNM, priority 2010, dated 2020)

B1: TAT-STEP peptide: constitutively active STEP-derived peptide fused to HIV-1 TAT protein transduction domain, myc-tagged; exact mutation set not stated here (protein)
chain: MALYGRKKRRQRRRGEEKVEDDFLDLDAVPETPVFDCVMDIKPETDPASLTVKSMGLQERRGANVSLTLDMCEPGCNEEGFGYLVEPREESAHEYLLSASRVLRAEELHEKALDPFLLQAE
modifications: Mouse
B2: TAT-STEP peptide of SEQ ID. No. 11: cell-permeable TAT-STEP peptide given intravenously in MCAO; figure legends call the treatment TAT-STEP-myc (protein)
chain: B1 chain
modifications: myc tag; Mouse

How the values were obtained:
cultured neurons [1] = experiment: cell culture model of glutamate toxicity (Hoechst DNA staining); assay type: cell-based; settings: transduction prior to or immediately after glutamate (100 μM, 30 min); staining 24 hr later
Text: Using a cell culture model of glutamate toxicity we first investigated the functional significance of STEP's activation following excitotoxic NMDA receptor stimulation. […] As described in Poddar et al., 2010, using a substrate-trapping mutant we established that p38 MAPK is a substrate of STEP and the KIM domain of STEP is involved in STEP-p38 interaction. NR2B-NMDAR mediated activation of STEP promotes cell survival by down-regulating p38 MAPK signaling pathway. However sustained NMDAR stimulation results in degradation of active STEP leading to secondary activation of p38 MAPK that triggers cell death pathways. Based on these findings we generated a constitutively active form of a STEP peptide that can bind irreversibly to p38 MAPK. It was rendered cell permeable by fusion to the protein transduction domain of the human immunodeficiency virus-type I, TAT.

striatum = experiment: animal model of glutamate toxicity, stereotactic injection into the striatum; assay type: in vivo; settings: injected stereotactically into the striatum prior to glutamate
cultured neurons [2] = experiment: oxygen-glucose deprivation (OGD), in vitro model of cerebral ischemia; assay type: cell-based; settings: pre-incubation with peptide; OGD 2 hr; viability tested 24 hr later
Method: In subsequent experiments we used oxygen-glucose deprivation (OGD) as an in vitro model of cerebral ischemia to evaluate the role of TAT-STEP peptide in neuroprotection following an ischemic insult. Cultured neurons were submerged in glucose free buffer in a hypoxic chamber (oxygen-glucose deprivation or OGD) for 2 hr in the presence or absence of the peptide and cell viability was tested by Hoechsy DNA staining 24 hr later.

male Wistar rats = experiment: middle cerebral artery occlusion (MCAO) acute ischemic stroke model; assay type: in vivo, rat; settings: intravenous, reperfusion 24 hr, vs saline, p<0.01
Method: FIG. 13 is a quantitative analysis of the infarct volume. Infarct volumes are expressed as a percentage of the contralateral (control) hemisphere and the data are mean +/− SEM (p<0.01).
FIG. 15 is a quantitative analysis of the infarct volume. Infarct volumes are expressed as a percentage of the contralateral (control) hemisphere and the data are mean +/− SEM (p<0.01).
Using an animal model of cerebral ischemia (middle cerebral artery occlusion for 90 min to generate embolic stroke followed by reperfusion for 24 hr), we evaluated whether degradation of active STEP contributes to neuronal cell death and subsequent brain damage and if the modified STEP peptide can mitigate ischemic brain damage. At first we examined the temporal profile of STEP's activation and subsequent degradation following cerebral ischemia and reperfusion and also evaluated its correlation with p38 MAPK activation. The findings show a rapid but transient increase in phosphorylation of p38 MAPK within 15 min of ischemic insult. This was followed by a time-dependent decrease in p38 phosphorylation from 30 min, which returned to basal levels by 90 min. […] As a consequence, active STEP limits the duration of activation of p38 MAPK. Progressive down regulation of active STEP through degradation is evident from ˜6 hours after reperfusion resulting in secondary activation of p38 MAPK. […]

| Molecule | neuronal cell death as assessed by Hoechst DNA staining (cultured neurons [1]) | glutamate-induced excitotoxic cell death in vivo (striatum) | OGD-induced cell death (Hoechst DNA staining) (cultured neurons [2]) | protection against ischemic brain injury (infarct volume, TTC staining) (male Wistar rats; 1.5 hr after onset of stroke (MCAO 90 min)) | protection against ischemic brain injury (infarct volume, TTC staining) (male Wistar rats; immediately before MCAO 90 min) |
| --- | --- | --- | --- | --- | --- |
| B1 | blocked neuronal cell death | could attenuate glutamate-induced excitotoxic cell death in vivo | significant reduction in OGD-induced cell death | – | – |
| B2 | – | – | – | significant protection against ischemic brain injury | significant protection against ischemic brain injury |
